Source: patent US20150093336A1 (VIB VZW, published 2015)
Substitutions are numbered along the chain they refer to.

T1: Recombinant mouse MMR (R&D systems) (mouse, UniProt Q61830 20-1388)
T1 construct: Antigen of the PE-ELISA and the SPR; also called mMMR; recombinant mMMR
T1 sequence: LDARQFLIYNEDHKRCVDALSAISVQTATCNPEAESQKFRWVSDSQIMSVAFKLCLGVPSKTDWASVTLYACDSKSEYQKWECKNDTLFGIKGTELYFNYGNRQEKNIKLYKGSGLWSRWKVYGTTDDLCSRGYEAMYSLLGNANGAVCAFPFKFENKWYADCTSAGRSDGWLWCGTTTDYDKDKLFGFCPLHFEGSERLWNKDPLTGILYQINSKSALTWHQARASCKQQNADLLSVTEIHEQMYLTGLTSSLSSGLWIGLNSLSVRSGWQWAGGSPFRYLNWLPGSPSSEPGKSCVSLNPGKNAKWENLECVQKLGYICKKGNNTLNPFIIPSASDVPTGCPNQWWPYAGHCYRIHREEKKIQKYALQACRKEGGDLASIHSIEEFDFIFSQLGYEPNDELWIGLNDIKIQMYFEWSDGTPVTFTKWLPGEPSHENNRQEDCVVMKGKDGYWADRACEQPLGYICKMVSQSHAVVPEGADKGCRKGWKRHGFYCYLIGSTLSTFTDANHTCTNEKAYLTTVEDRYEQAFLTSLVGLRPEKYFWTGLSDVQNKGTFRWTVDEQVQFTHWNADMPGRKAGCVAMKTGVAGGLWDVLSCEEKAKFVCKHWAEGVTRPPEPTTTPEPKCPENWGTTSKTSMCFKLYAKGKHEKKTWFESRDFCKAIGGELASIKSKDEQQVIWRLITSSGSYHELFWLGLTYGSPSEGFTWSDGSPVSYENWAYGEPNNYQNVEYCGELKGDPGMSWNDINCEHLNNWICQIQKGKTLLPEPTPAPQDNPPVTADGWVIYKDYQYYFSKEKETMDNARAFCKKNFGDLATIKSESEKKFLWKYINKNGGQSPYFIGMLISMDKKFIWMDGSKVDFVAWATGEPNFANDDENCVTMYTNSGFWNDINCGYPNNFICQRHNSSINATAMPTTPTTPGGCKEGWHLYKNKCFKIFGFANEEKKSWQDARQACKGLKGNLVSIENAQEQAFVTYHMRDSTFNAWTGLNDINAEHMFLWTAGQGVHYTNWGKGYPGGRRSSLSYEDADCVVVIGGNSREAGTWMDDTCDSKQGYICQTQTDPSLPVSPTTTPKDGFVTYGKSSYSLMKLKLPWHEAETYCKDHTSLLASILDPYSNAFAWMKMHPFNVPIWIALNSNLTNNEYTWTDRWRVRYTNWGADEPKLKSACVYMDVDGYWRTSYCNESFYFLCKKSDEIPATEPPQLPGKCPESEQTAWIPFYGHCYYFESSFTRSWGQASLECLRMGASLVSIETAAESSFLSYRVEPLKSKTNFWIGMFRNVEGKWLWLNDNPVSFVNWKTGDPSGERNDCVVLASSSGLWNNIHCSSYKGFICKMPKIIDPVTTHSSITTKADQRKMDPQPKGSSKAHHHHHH

T2: Recombinant human MMR (R&D systems) (human, UniProt P22897 19-1383)
T2 construct: Antigen of the PE-ELISA and the SPR; also called hMMR; recombinant hMMR
T2 sequence: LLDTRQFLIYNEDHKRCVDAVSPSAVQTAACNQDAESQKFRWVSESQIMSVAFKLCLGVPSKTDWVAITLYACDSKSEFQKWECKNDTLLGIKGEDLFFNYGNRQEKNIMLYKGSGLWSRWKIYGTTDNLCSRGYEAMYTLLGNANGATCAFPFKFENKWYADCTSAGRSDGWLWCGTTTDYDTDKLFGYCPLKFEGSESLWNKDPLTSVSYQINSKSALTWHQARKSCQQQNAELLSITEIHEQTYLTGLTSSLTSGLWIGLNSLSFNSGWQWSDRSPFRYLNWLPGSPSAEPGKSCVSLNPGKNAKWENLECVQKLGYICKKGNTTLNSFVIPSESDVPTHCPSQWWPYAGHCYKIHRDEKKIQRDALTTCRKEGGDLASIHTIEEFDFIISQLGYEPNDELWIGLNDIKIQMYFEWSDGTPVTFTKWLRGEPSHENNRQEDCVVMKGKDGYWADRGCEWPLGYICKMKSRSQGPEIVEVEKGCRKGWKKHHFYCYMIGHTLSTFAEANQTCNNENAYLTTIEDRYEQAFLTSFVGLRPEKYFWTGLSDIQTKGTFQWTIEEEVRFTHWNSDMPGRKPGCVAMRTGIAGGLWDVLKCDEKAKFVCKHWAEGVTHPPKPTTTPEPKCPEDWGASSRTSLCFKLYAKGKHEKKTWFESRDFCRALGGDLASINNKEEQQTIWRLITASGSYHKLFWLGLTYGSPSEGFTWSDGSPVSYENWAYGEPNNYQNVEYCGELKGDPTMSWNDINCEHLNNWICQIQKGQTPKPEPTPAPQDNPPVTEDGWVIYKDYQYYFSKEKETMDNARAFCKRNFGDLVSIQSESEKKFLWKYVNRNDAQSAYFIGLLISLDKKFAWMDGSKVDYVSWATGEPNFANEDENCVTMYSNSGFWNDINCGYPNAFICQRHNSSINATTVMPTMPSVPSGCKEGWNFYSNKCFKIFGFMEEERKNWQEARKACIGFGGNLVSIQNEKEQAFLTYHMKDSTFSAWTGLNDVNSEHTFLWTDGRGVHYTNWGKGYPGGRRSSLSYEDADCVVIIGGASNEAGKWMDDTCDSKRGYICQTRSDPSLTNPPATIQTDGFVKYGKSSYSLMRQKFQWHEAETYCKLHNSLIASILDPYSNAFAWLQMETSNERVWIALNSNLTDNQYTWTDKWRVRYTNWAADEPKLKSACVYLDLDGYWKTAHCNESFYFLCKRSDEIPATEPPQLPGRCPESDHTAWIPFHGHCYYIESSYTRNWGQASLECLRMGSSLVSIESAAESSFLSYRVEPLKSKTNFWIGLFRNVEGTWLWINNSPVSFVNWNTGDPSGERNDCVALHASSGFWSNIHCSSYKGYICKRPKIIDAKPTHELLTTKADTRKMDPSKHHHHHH

B1: NbhmMMRm14.4 (VHH)
VHH: QVQLQESGGGLVQAGDSLRLSCAASGRTFSINYMGWYRQAPGKQRELVAAITSGSGSTNYADSVKGRFTISRDNAKNTMYLQMNSLKPEDTAVYYCNADMDSSLSGGYVDVWGQGTQVTVSS
notes: Produced from pMECS with C-terminal HA and 6xHis tag
B2: NbhmMMRm14.93 (VHH)
VHH: B1 VHH with N77K
notes: as for B1
B3: NbhMMRm10.19 (VHH)
VHH: QVQLQESGGGLVQPGGSLKLSCAASGSIFSIKTMGWYRQAPGKQRELVAAITSGGSTNYADSVKGRFTISRDNAKNTVYLQMNSLKPEDTAVYYCNADGVVAWDQPYDNYWGQGTQVTVSS
notes: as for B1
B4: NbhmMMRm10.79 (VHH)
VHH: B3 VHH with I51V, T52S, T77A
notes: as for B1
B5: NbhMMRm1.33 (VHH)
VHH: QVQLQESGGGLVQPGGSLRLSCAASGFTLDNYTVAWFRQAPGKEREGVSCISSSGGSTNYADSVKGRFTISRDNSKKSVYLQMNSLKPEDTAIYTCAAERAPPYYSGYYFFDSTCVAASYDYWGQGTQVTVSS
notes: Produced from pMECS in E. coli WK6 with C-terminal HA and 6xHis tag; also called NbMMRm1.33
B6: NbhMMRm12.6 (VHH)
VHH: QVQLQESGGGLVQPGGSLRLSCVVSGSFLSINHMGWYRQVSGEQRELVAAITSGGSTNYADSVKGRFTISRDSAKNTVYLQMNSLKPEDTAVYYCNADALTMLPPFDFWGQGTQVTVSS
notes: as for B1
B7: NbhMMRm2.15 (VHH)
VHH: QVQLQESGGGLVQPGESLRLSCKLSGFTLDYYDIGWFRQAPGKEREGVSCISSIGGSANYADSVKGRFTISRDNVKNTVYLQMNSLKPEDTAIYYCAAEAQTPYNDGDCTRASYDYWGQGIQVTVSS
notes: as for B1
B8: NbhMMRm16.95 (VHH)
VHH: QVQLQESGGGLVQPGGSLGLSCAASGRIASISAMGWYRQAPGKQRELVAAITGSGRTNYADSVKGRFTISRDNAKNTVYLQMNSLKPEDTAVYYCNLLMVDYGLGLGTDYWGQGTQVTVSS
notes: as for B1
B9: NbhmMMRm19.52 (VHH)
VHH: QVQLQESGGGLVQAGGSLRLSCLASGDTFSNYVMAWFRQAPGKEREIVAAIRLSGARYVPDSVKGRFTISRDNAKNAMYLQMTSLKPEDTARYYCAAGHTWGQYAYWGQGTQVTVSS
notes: as for B1
B10: NbhMMRm11.5 (VHH)
VHH: QVQLQESGGGLVQPGGSLMLSCAASGNIFTINRMGWYRQAPGKQRELVAAITSGGNTNYADSVKGRFTISRDNAKNTVYLQMNSLKPEDTAVYYCNAAIVTMTSPYSDYWGQGTQVTVSS
notes: as for B1
B11: NbhmMMRm20.52 (VHH)
VHH: QVQLQESGGGLVQAGGSLRLSCAASGRIFSAYAMGWFRQAPGKEREFVAAISRSGDSTDYADSVKGRFTISRDSAKNMVYLQMNSLKPEDTALYHCAARTVSAPPSAAWGYGYWGQGTQVTVSS
notes: as for B1

Target: T1, Recombinant mouse MMR (R&D systems)
Assay: SPR, BIAcore T100; mouse MMR on CM5 chip, sdAb as analyte
Protocol: (§1) Affinity analysis was performed using a BIAcore™ T100 (GE Healthcare) with HEPES-buffered saline running buffer (10 mM HEPES with 0.15 M NaCl, 3.4 mM EDTA and 0.005% surfactant P20 at pH 7.4). MRR was immobilized on a CM5 chip in acetate buffer 50 mM (pH 5.0), resulting in 2100 RU MMR coated on the chip. A second channel on the same chip was activated/deactivated in a similar way and served as a negative control. The MMR sdAbs were used as analytes in eleven different concentrations, ranging from 1 to 2000 nM, at a flow rate of […]. Glycine-HCl 50 mM (pH 2.0) was used for elution. The kinetic and equilibrium parameters (kd, ka and KD) values were calculated from the combined sensogram of all concentrations using BIAcore™ T100 evaluation software 2.02 (GE Healthcare).
(§2) The binding characteristics and affinity of selected Nbs towards the recombinant hMMR and recombinant mMMR antigen was examined in further detail using surface plasmon resonance. A combined sensogram was recorded for each Nb (example for NbhmMMRm3.49 in FIG. 5) and the kinetic and equilibrium parameters (kd, ka and KD) values were calculated (Table 4 and Table 5). Most but not all results on binding to mouse or human rMMR obtained via this SPR analysis are in agreement with the results obtained by PE-ELISA.

Row | Kd [nM] | koff [s⁻¹] | kon [M⁻¹ s⁻¹] | Binder | binding result
1 | 68 | 0.0023 | 33000 | B1 | 
2 | 74 | 0.0021 | 29000 | B2 | 
3 | 250 | 0.21 | 840000 | B3 | 
4 | 39 | 0.0042 | 110000 | B4 | 
5 |  |  |  | B5 | no binding (tested: analyte 1 to 2000 nM)
6 |  |  |  | B6 | no binding (tested: analyte 1 to 2000 nM)
7 |  |  |  | B7 | no binding (tested: analyte 1 to 2000 nM)
8 |  |  |  | B8 | no binding (tested: analyte 1 to 2000 nM)
9 | 8500 | 0.032 | 3700 | B9 | 
10 | 120 | 0.019 | 150000 | B10 | 
11 | 1.3 | 0.002 | 1.6e+06 | B11 | 

Target: T2, Recombinant human MMR (R&D systems)
Assay: SPR, BIAcore T100; human MMR on CM5 chip, sdAb as analyte
Protocol: as §1, §2

Row | Kd [nM] | koff [s⁻¹] | kon [M⁻¹ s⁻¹] | Binder
12 | 10 | 0.0014 | 140000 | B1
13 | 13 | 0.0012 | 95000 | B2
14 | 50 | 0.031 | 750000 | B3
15 | 420 | 0.0066 | 16000 | B4
16 | 7.7 | 0.0015 | 200000 | B5
17 | 8.2 | 0.0012 | 150000 | B6
18 | 8.6 | 0.0013 | 150000 | B7
19 | 21 | 0.0014 | 66000 | B8
20 | 1700 | 0.01 | 6000 | B9
21 | 55 | 0.022 | 400000 | B10
22 | 260 | 0.13 | 510000 | B11
